According to US8226935 (dated 2012):

T1: heregulin (125I-HRG) (human, UniProt Q02297)
T1 chain: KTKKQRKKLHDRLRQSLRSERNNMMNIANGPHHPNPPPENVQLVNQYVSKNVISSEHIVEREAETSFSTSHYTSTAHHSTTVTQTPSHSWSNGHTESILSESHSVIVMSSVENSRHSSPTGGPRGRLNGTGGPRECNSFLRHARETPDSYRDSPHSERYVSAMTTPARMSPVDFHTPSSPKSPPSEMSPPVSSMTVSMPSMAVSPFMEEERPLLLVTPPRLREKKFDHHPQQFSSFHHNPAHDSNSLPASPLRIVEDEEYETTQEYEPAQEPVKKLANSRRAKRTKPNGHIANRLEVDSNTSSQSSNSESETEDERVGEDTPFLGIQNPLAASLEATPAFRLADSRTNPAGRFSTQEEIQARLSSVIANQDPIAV

B1: ErbB4-IgG (antibody)
chain: QSVCAGTENKLSSLSDLEQQYRALRKYYENCEVVMGNLEITSIEHNRDLSFLRSVREVTGYVLVALNQFRYLPLENLRIIRGTKLYEDRYALAIFLNYRKDGNFGLQELGLKNLTEILNGGVYVDQNKFLCYADTIHWQDIVRNPWPSNLTLVSTNGSSGCGRCHKSCTGRCWGPTENHCQTLTRTVCAEQCDGRCYGPYVSDCCHRECAGGCSGPKDTDCFACMNFNDSGACVTQCPQTFVYNPTTFQLEHNFNAKYTYGAFCVKKCPHNFVVDSSSCVRACPSSKMEVEENGIKMCKPCTDICPKACDGIGTGSLMSAQTVDSSNIDKFINCTKINGNLIFLVTGIHGDPYNAIEAIDPEKLNVFRTVREITGFLNIQSWPPNMTDFSVFSNLVTIGGRVLYSGLSLLILKQQGITSLQFQSLKEISAGNIYITDNSNLCYYHTINWTTLFSTINQRIVIRDNRKAENCTAEGMVCNHLCSSDGCWGPGPDQCLSCRRFSRGRICIESCNLYDGEFREFENGSICVECDPQCEKMEDGLLTCHGPGPDNCTKCSHFKDGPNCVEKCPDGLQGANSFIFKYADPDRECHPCHPNCTQGCNGPTSHDCIYYPWTGHSTLPQHARTP
modifications: homodimeric ECD-human IgG Fc immunoadhesin
B2: ErbB3/4-IgG (antibody)
chain 1: not shown
chain 2: B1 chain
modifications: heterodimeric ECD-human IgG Fc immunoadhesin (mixture with homodimers)

Target: T1, heregulin (125I-HRG)
Experiment: other 125I-HRG radioligand binding, Scatchard

Row | Binder | Kd
1 | B1 | 4.98 nM
2 | B2 | 5.98 nM
